Laboratory results as given in publication doi:10.1101/2024.12.09.627633 (bioRxiv, 2024).

Molecular target: the molecule itself
Assay: thioflavin T fluorescence of in vitro polymerisation; CAF domains 30 uM polymerised at 37 C with shaking at 200 rpm; ThT added at each time point; excitation 444 nm, emission 480 nm

B1: CAF domain (residues 148-223) of G175S human PMEL (domain or fragment, UniProt P40967 148-223, looked up)
chain: SFVYVWKTWGQYWQVLGGPVSGLSIGTSRAMLGTHTMEVTVYHRRGSRSYVPLAHSSSAFTITDQVPFSVSVSQLR
notes: PMEL, human, CAF (core amyloid-forming) domain, residues 148-223, with the G175S mutation linked to pigment dispersion syndrome; Polymerised in vitro in 150 mM sodium acetate pH 4.4 into two-protofilament fibrils; also called G175S CAF domain; G175S mutant; source: E. coli BL21 (DE3), pET24a, inclusion bodies, purified (Ni-NTA in 8M urea)
fold final yield of polymerized amyloids against the wild type: ~4 fold
fold rate of polymerisation against the wild type: ~4 fold
